In this series the test system is Escherichia coli TOP10. Put plainly: shrunken log2 fold change of peptide-encoding DNA abundance (4.5 h post-induction vs induction); higher = less antimicrobial activity (less host growth inhibition). Conditions: time post-induction: 4.5 h; library: site-saturation at positions 5, 18, 19, 20.
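Further: peptides expressed intracellularly from a pBAD plasmid library in pooled LB shake-flask culture, induced with 0.3% L-arabinose, DNA abundance read by NGS, three biological replicates, DESeq2 with apeglm shrinkage.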

For RRIRWRPPRLPRPRPRPQWYPRP, the “shrunken log2 fold change” value was -0.28.

RRIRNRPPRLPRPRPRPKLYPRP: the “shrunken log2 fold change” value is -0.289.

As for RRIRQRPPRLPRPRPRPWKLPRP, the “shrunken log2 fold change” value is -0.09.

Consider RRIRFRPPRLPRPRPRPWMDPRP, for which the “shrunken log2 fold change” value is -0.347.

Consider RRIRSRPPRLPRPRPRPKPTPRP, for which the “shrunken log2 fold change” value was found to be 0.174.

Regarding RRIRGRPPRLPRPRPRPEYIPRP, the “shrunken log2 fold change” value was 0.252.

On to RRIRARPPRLPRPRPRPRQGPRP, for which the “shrunken log2 fold change” value stood at 0.605.

For the sequence RRIRIRPPRLPRPRPRPWPEPRP, the “shrunken log2 fold change” value was -0.162.

On to RRIRRRPPRLPRPRPRPRRKPRP, for which the “shrunken log2 fold change” value was determined as 0.43.

Take RRIRFRPPRLPRPRPRPINEPRP: the “shrunken log2 fold change” value was -0.11.

As to RRIRIRPPRLPRPRPRPMTIPRP, the “shrunken log2 fold change” value is -1.16.

As for RRIRQRPPRLPRPRPRPQGEPRP, the “shrunken log2 fold change” value is -0.154.

Consider RRIRWRPPRLPRPRPRPQTSPRP, for which the “shrunken log2 fold change” value was -0.0118.

Turning to RRIRARPPRLPRPRPRPTNFPRP, the “shrunken log2 fold change” value was -0.0105.

For the sequence RRIRQRPPRLPRPRPRPEADPRP, the “shrunken log2 fold change” value turned out to be 0.138.

In the case of RRIRHRPPRLPRPRPRPKTWPRP, the “shrunken log2 fold change” value was -0.0101.

As to RRIRGRPPRLPRPRPRPAMTPRP, the “shrunken log2 fold change” value is 1.48.

Turning to RRIRHRPPRLPRPRPRPFLTPRP, the “shrunken log2 fold change” value is -0.217.

RRIRWRPPRLPRPRPRPYVNPRP: the “shrunken log2 fold change” value was -0.355.

For the sequence RRIRWRPPRLPRPRPRPWLSPRP, the “shrunken log2 fold change” value was -0.0459.

Regarding RRIRQRPPRLPRPRPRPVNQPRP, the “shrunken log2 fold change” value was -0.0686.

In the case of RRIRPRPPRLPRPRPRPLDQPRP, the “shrunken log2 fold change” value turned out to be 0.0885.

For the sequence RRIRTRPPRLPRPRPRPDIPPRP, the “shrunken log2 fold change” value was -0.0961.

On to RRIRARPPRLPRPRPRPEPFPRP, for which the “shrunken log2 fold change” value was 0.0204.

Turning to RRIRKRPPRLPRPRPRPAFPPRP, the “shrunken log2 fold change” value stood at 0.165.

For the sequence RRIRFRPPRLPRPRPRPFQVPRP, the “shrunken log2 fold change” value is -0.309.

In the case of RRIRCRPPRLPRPRPRPAMAPRP, the “shrunken log2 fold change” value was found to be 0.199.

Consider RRIRSRPPRLPRPRPRPTIGPRP, for which the “shrunken log2 fold change” value was found to be 0.0365.

As to RRIRQRPPRLPRPRPRPSFEPRP, the “shrunken log2 fold change” value was -0.213.

RRIRGRPPRLPRPRPRPHVGPRP: the “shrunken log2 fold change” value was found to be 0.0375.

As for RRIRVRPPRLPRPRPRPQQTPRP, the “shrunken log2 fold change” value was determined as 0.0227.

Take RRIRLRPPRLPRPRPRPAYDPRP: the “shrunken log2 fold change” value was -0.00456.

As for RRIRDRPPRLPRPRPRPETSPRP, the “shrunken log2 fold change” value is -0.0166.

Consider RRIRCRPPRLPRPRPRPSHCPRP, for which the “shrunken log2 fold change” value is -0.393.

On to RRIRQRPPRLPRPRPRPMPQPRP, for which the “shrunken log2 fold change” value was found to be 0.00445.

Regarding RRIRYRPPRLPRPRPRPQFVPRP, the “shrunken log2 fold change” value worked out at 0.119.

Take RRIRHRPPRLPRPRPRPPADPRP: the “shrunken log2 fold change” value was found to be 0.492.

Take RRIRERPPRLPRPRPRPLYVPRP: the “shrunken log2 fold change” value is -0.939.

In the case of RRIRNRPPRLPRPRPRPPCAPRP, the “shrunken log2 fold change” value was -0.0473.

For the sequence RRIRPRPPRLPRPRPRPNGWPRP, the “shrunken log2 fold change” value worked out at 0.296.

Consider RRIRTRPPRLPRPRPRPLTGPRP, for which the “shrunken log2 fold change” value was -0.0139.

With RRIRHRPPRLPRPRPRPLPIPRP, the “shrunken log2 fold change” value is -0.598.

With RRIRVRPPRLPRPRPRPNEKPRP, the “shrunken log2 fold change” value is -0.0575.

Turning to RRIRHRPPRLPRPRPRPDYDPRP, the “shrunken log2 fold change” value is -0.278.

Turning to RRIRSRPPRLPRPRPRPVGPPRP, the “shrunken log2 fold change” value was 0.373.

Take RRIRFRPPRLPRPRPRPRPKPRP: the “shrunken log2 fold change” value amounted to 0.98.

In the case of RRIRDRPPRLPRPRPRPMWHPRP, the “shrunken log2 fold change” value is -0.008.

As for RRIRARPPRLPRPRPRPGHFPRP, the “shrunken log2 fold change” value was found to be 0.0329.

As for RRIRIRPPRLPRPRPRPMNGPRP, the “shrunken log2 fold change” value was found to be 0.00766.

Turning to RRIRLRPPRLPRPRPRPKCTPRP, the “shrunken log2 fold change” value stood at 0.0446.

For RRIRWRPPRLPRPRPRPAHSPRP, the “shrunken log2 fold change” value came out at 0.321.

As to RRIRKRPPRLPRPRPRPLQKPRP, the “shrunken log2 fold change” value was -0.0368.

With RRIRCRPPRLPRPRPRPHSWPRP, the “shrunken log2 fold change” value is -0.301.

As to RRIRLRPPRLPRPRPRPRYPPRP, the “shrunken log2 fold change” value was determined as 0.318.

As to RRIRCRPPRLPRPRPRPCAEPRP, the “shrunken log2 fold change” value stood at 0.0802.

Take RRIRYRPPRLPRPRPRPFNWPRP: the “shrunken log2 fold change” value is -0.238.

As to RRIRERPPRLPRPRPRPIDGPRP, the “shrunken log2 fold change” value worked out at 0.0442.

RRIRDRPPRLPRPRPRPDATPRP: the “shrunken log2 fold change” value turned out to be 0.0857.

Turning to RRIRSRPPRLPRPRPRPDNNPRP, the “shrunken log2 fold change” value is -0.268.

As for RRIRCRPPRLPRPRPRPYTIPRP, the “shrunken log2 fold change” value was -0.342.

For RRIRPRPPRLPRPRPRPHDIPRP, the “shrunken log2 fold change” value was 0.152.

In the case of RRIRNRPPRLPRPRPRPFDRPRP, the “shrunken log2 fold change” value is 0.0368.

RRIRARPPRLPRPRPRPPHAPRP: the “shrunken log2 fold change” value is 0.964.

With RRIRKRPPRLPRPRPRPHCGPRP, the “shrunken log2 fold change” value is -0.0593.

On to RRIRTRPPRLPRPRPRPTNMPRP, for which the “shrunken log2 fold change” value is -0.409.

On to RRIRTRPPRLPRPRPRPEGIPRP, for which the “shrunken log2 fold change” value amounted to 0.0215.

Take RRIRKRPPRLPRPRPRPQEGPRP: the “shrunken log2 fold change” value is -0.00136.

Regarding RRIRIRPPRLPRPRPRPRVQPRP, the “shrunken log2 fold change” value came to 0.0871.

In the case of RRIRKRPPRLPRPRPRPTYIPRP, the “shrunken log2 fold change” value was -0.154.

Take RRIRWRPPRLPRPRPRPQCPPRP: the “shrunken log2 fold change” value was -0.357.

As to RRIRNRPPRLPRPRPRPCSYPRP, the “shrunken log2 fold change” value is -0.212.

As for RRIRSRPPRLPRPRPRPMQIPRP, the “shrunken log2 fold change” value was determined as 0.141.

Turning to RRIRSRPPRLPRPRPRPQAGPRP, the “shrunken log2 fold change” value worked out at 0.165.

With RRIRARPPRLPRPRPRPCDSPRP, the “shrunken log2 fold change” value turned out to be 0.0469.

In the case of RRIRARPPRLPRPRPRPEIKPRP, the “shrunken log2 fold change” value was determined as 1.77.

For RRIRHRPPRLPRPRPRPYNWPRP, the “shrunken log2 fold change” value is -0.928.

On to RRIRIRPPRLPRPRPRPTSQPRP, for which the “shrunken log2 fold change” value is -0.283.

Take RRIRNRPPRLPRPRPRPNVPPRP: the “shrunken log2 fold change” value was -0.128.

Regarding RRIRIRPPRLPRPRPRPELAPRP, the “shrunken log2 fold change” value is 0.254.

RRIRMRPPRLPRPRPRPTDSPRP: the “shrunken log2 fold change” value turned out to be 0.0971.

Regarding RRIRERPPRLPRPRPRPKVVPRP, the “shrunken log2 fold change” value is -0.0857.

For the sequence RRIRGRPPRLPRPRPRPPFRPRP, the “shrunken log2 fold change” value was found to be 0.681.

For RRIRRRPPRLPRPRPRPKDWPRP, the “shrunken log2 fold change” value was found to be 0.36.

Turning to RRIRTRPPRLPRPRPRPTPEPRP, the “shrunken log2 fold change” value was 0.08.

As to RRIRDRPPRLPRPRPRPSCFPRP, the “shrunken log2 fold change” value turned out to be 0.126.

With RRIRTRPPRLPRPRPRPWRSPRP, the “shrunken log2 fold change” value is -0.0438.

As for RRIRERPPRLPRPRPRPIFAPRP, the “shrunken log2 fold change” value worked out at 0.21.

Regarding RRIRIRPPRLPRPRPRPLRRPRP, the “shrunken log2 fold change” value was 0.0866.

For RRIRWRPPRLPRPRPRPFKYPRP, the “shrunken log2 fold change” value was -0.00867.

With RRIRERPPRLPRPRPRPRRFPRP, the “shrunken log2 fold change” value stood at 0.158.

For the sequence RRIRWRPPRLPRPRPRPIRDPRP, the “shrunken log2 fold change” value turned out to be 0.0528.

For the sequence RRIRMRPPRLPRPRPRPYIHPRP, the “shrunken log2 fold change” value was -0.262.

For the sequence RRIRVRPPRLPRPRPRPNEDPRP, the “shrunken log2 fold change” value is -0.168.

On to RRIRARPPRLPRPRPRPGAIPRP, for which the “shrunken log2 fold change” value is 0.828.

Consider RRIRTRPPRLPRPRPRPCCVPRP, for which the “shrunken log2 fold change” value is -0.363.

As for RRIRKRPPRLPRPRPRPKCAPRP, the “shrunken log2 fold change” value came to 0.283.

With RRIRIRPPRLPRPRPRPIVTPRP, the “shrunken log2 fold change” value is -0.429.

RRIRQRPPRLPRPRPRPVWYPRP: the “shrunken log2 fold change” value is -0.254.

In the case of RRIRNRPPRLPRPRPRPHFGPRP, the “shrunken log2 fold change” value was -0.104.

In the case of RRIRFRPPRLPRPRPRPKEAPRP, the “shrunken log2 fold change” value was found to be 0.084.

Regarding RRIRSRPPRLPRPRPRPVCMPRP, the “shrunken log2 fold change” value is -0.053.

Regarding RRIRLRPPRLPRPRPRPLSGPRP, the “shrunken log2 fold change” value worked out at 0.15.

For RRIRGRPPRLPRPRPRPKYTPRP, the “shrunken log2 fold change” value amounted to 0.101.

With RRIRQRPPRLPRPRPRPHTCPRP, the “shrunken log2 fold change” value is -0.325.

On to RRIRYRPPRLPRPRPRPKISPRP, for which the “shrunken log2 fold change” value is -0.134.

As to RRIRARPPRLPRPRPRPHAPPRP, the “shrunken log2 fold change” value amounted to 0.54.

RRIRGRPPRLPRPRPRPHCVPRP: the “shrunken log2 fold change” value amounted to 0.517.

RRIRARPPRLPRPRPRPRMVPRP: the “shrunken log2 fold change” value was found to be 0.686.

RRIRKRPPRLPRPRPRPPGSPRP: the “shrunken log2 fold change” value is 0.618.

As to RRIRYRPPRLPRPRPRPVQVPRP, the “shrunken log2 fold change” value came to 0.0039.

As for RRIRIRPPRLPRPRPRPFQDPRP, the “shrunken log2 fold change” value turned out to be 0.0408.

Turning to RRIRNRPPRLPRPRPRPWFEPRP, the “shrunken log2 fold change” value is -0.879.

In the case of RRIRFRPPRLPRPRPRPEDVPRP, the “shrunken log2 fold change” value was -0.0294.

Regarding RRIRGRPPRLPRPRPRPGAQPRP, the “shrunken log2 fold change” value stood at 1.19.

RRIRCRPPRLPRPRPRPAPWPRP: the “shrunken log2 fold change” value is 0.438.

In the case of RRIRPRPPRLPRPRPRPAFMPRP, the “shrunken log2 fold change” value is -0.0434.

Consider RRIRSRPPRLPRPRPRPVGMPRP, for which the “shrunken log2 fold change” value was determined as 0.12.

Take RRIRMRPPRLPRPRPRPPICPRP: the “shrunken log2 fold change” value is 0.292.

Consider RRIRNRPPRLPRPRPRPMGVPRP, for which the “shrunken log2 fold change” value worked out at 0.165.

As to RRIRCRPPRLPRPRPRPTYMPRP, the “shrunken log2 fold change” value is -0.432.

In the case of RRIRKRPPRLPRPRPRPSMQPRP, the “shrunken log2 fold change” value came to 0.293.

Regarding RRIRKRPPRLPRPRPRPHQDPRP, the “shrunken log2 fold change” value amounted to 0.0154.

RRIRKRPPRLPRPRPRPRWHPRP: the “shrunken log2 fold change” value turned out to be 0.0132.

As for RRIRQRPPRLPRPRPRPHTGPRP, the “shrunken log2 fold change” value was -0.18.

With RRIRVRPPRLPRPRPRPPSDPRP, the “shrunken log2 fold change” value was 0.197.

The record behind these values is the supplement of paper PMC9112550, “Optimization of the antimicrobial peptide Bac7 by deep mutational scanning” (BMC Biology, 2022).
